Assay results from patent US20260242834A1, “ENZYMES, POLYNUCLEOTIDES ENCODING SAME, AND METHODS OF USING SAME FOR PRODUCING MESCALINE” (YEDA RESEARCH AND DEVELOPMENT CO. LTD., priority 2023, published 2026).

Experiments:
[1] = target: 5-HT2A serotonin receptor (Homo sapiens, UniProt P28223); details: 5-HT2A serotonin receptor agonist, cited from earlier work
[2] = OMT in vitro assays with lysates from transformed E. coli in the presence of SAM; assay type: biochemical, Lophophora williamsii (Peyote); details: substrates 3, 6 or 9
[3] = system: N. benthamiana leaves; assay: Transient expression in N. benthamiana leaves by agroinfiltration; assay type: cell-based, Nicotiana benthamiana; details: tyramine 4 to dopamine 3 and 3-MeO-tyramine 7 to 3,4-diOH-5-MeO-phenethylamine 6
Excerpt: TyDC2, CYP1-12, PPO1, MT1-4, OMT1,5,10,11 and the previously characterized BvCYP76AD6 were amplified and cloned in pAlpha2-NPT II-Ubq10-CCD-Ter10 vector digested with BsaI using ClonExpress II One Step Cloning kit (Vazyme). For BvCYP76AD6 the inventors used stocks of previously transformed bacteria containing the specific gene (Polturak et al., 2016; New Phyol.). All plasmids were sequenced and transformed into Agrobacterium tumefaciens strain GV3101 by electroporation. A. tumefaciens harboring the overexpression constructs were grown overnight at 28° C. in Luria-Bertani (LB) medium in the presence of kanamycin and gentamycin. Bacterial cells were collected by centrifugation, washed, and resuspended in infiltration buffer (10 mM MES, 2 mM MgCl2, 2 mM Na3PO4, 0.5% glucose and 100 mM acetosyringone) to OD600=0.8. Individual and/or equal volumes of A. tumefaciens suspension with different expression vectors were combined to obtain the desired gene combinations and incubated for 2 h at room temperature. The solutions were infiltrated into 4- or 5-week-old N. benthamiana leaves from the abaxial side using a 1-ml needleless syringe. […] Leaf samples were flash frozen and extracted as previously described with 300 μl ice-cold methanol with 0.1% formic acid and analyzed via LC-MS. […]

[4] = system: 3-MeO-tyramine 7; assay: Heterologous expression in yeast supplemented with 3-MeO-tyramine 7; assay type: cell-based, S. cerevisiae; details: two days from galactose induction; compared with LwCYP84A220

5-HT2A serotonin receptor, sequence (P28223 whole entry): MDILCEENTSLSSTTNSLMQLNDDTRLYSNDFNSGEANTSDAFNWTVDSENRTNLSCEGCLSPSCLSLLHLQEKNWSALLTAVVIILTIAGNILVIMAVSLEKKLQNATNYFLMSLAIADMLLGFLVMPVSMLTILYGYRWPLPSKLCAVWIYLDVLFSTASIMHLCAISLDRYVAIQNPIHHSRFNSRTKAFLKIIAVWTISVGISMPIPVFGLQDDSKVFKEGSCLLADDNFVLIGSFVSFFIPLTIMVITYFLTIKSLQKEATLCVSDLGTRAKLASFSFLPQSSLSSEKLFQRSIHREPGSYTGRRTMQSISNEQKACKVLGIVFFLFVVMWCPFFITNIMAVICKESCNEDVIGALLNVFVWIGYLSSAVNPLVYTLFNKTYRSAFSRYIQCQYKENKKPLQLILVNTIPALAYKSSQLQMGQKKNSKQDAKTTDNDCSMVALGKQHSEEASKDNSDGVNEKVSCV

COc1cc(CCN)cc(OC)c1OC [Mescaline]
times less potent effects than LSD ([1]; compared with LSD): 1,000-3,000 times | times less potent than psilocybin ([1]; compared with psilocybin): 30 times

B1: OMT5: Peyote O-methyltransferase (protein, listed as Lophophora williamsii)
chain: MGSASGSAERTQMGEDEACSFAMTITSGSVPPMVLKAVIELDVLEIIKRAGPGAHLSPAEIAAQLPTTNPGAAAMLDRMLRLLASYDVLSYSLHTLPDGRVERLYGLAPVCQFLTNNEDGVTLSALSLMNQDKVLMESWYHLKDAVLDGGIPFNKAYGMTAFEYHGTDPRFNKVFNNGMSNHSTITMKKLLENYKGFEGVSTLVDVGGGTGATLNMIISKHPTIKGINFDLPHVIEDAPTYPGVEHIGGDMFVSVPKGDAIFMKWICHDWSDEHCLKFLKNCYAALADHGKVIVCEYILPVAPETNHAARTVFHVDAIMLAHNPGGKERTEQEFESLAKGAGFEGFRVACSAYDTKVMEFLKNN
O-methylation regioselectivity [2]: O-methylated the two meta hydroxyl groups

B2: LwCYP12: Peyote CYP76AD-subfamily cytochrome P450 hydroxylase (protein, listed as Lophophora williamsii)
chain: MGYYAIFAVVLPFLWTCFYLLKLNPTSKLTSTIRLPPGPRPLPIIGNLHQLGERPHRTLANLAKVYGPIISLKFGSITTIAVSSADVAKEMFQKHDLALASRKVPAAVRANGHDNFSVAWLPVTPKWRFLRKISAIQLFSTQRLDARQSLRQAKVVELLDYIKARSNAGEPVDIGEAAFTTSLNLLSNTFFSMDLASYSSAASGEFKELVWKIMEEIGKPNLADCFPLVGFISRMSVNRELMGYGNKLNEVFAEIIEKRLSAANSSEGRGNGDVLDTLLRIMEEDDSELSLDDIMHLLMDFFTAGTDTTSSTLEWAMTELLHNPEKMAKAQAELEQVLGKDTVSIQESDIAKLLYLQATVKETLRMHPPTVFLLPRKADSDIDLYGHLVPKNAQVFVNLWAISYDPSTWENPDLFSPERFLDQDIDMKGQDFGFIPFGAGRRICPGLTLAYRMLNLMLGTLIHVFNWKLGDGLSREDLDMTDKFGITIQKAKPLRAIPILK
hydroxylation activity in planta [3]: regioselectively catalyzes the two meta hydroxylations | catalytic activity for the production of 3,4-diOH-5-MeO-phenethylamine 6 [4]: superior catalytic activity
